The nature of this series: label from the status in PepcDB records.
As for “MSQDRIAGIDVATNSTDISNIINEMIICIKGKQMPEVHEKAMDHLSKMIAANSRVIRDSNMLTERECVQKIMKLLSARYKKEEGKTVSDHFNELYRKLTLTKCDPHMRHSLMTHLLTITDNSDAEKAVASEDPRTQCDNLTQILVSRLNSISSSIASLNEMGVVNGNGVGAAAVTGAAAVTGAAAVTGAAAVTGAAASHSYDATQSSIGLRKQSLPNYLDATKMLPESRHDIVMSAIYSFTGVQGKYLKKDVVTGRFKLDQQNIKFLTTGQAGMLLRLSELGYYHDRVVKFSDVSTGFNAIGSMGQALISKLKEELANFHGQVAMLHDEMQRFRQASVNGIANKGKKDSGPDAGDEMTLFKLLAWYIKPLHRMQWLTKIADACQVKKGGDLASTVYDFLDNGNDMVNKLVEDFLTAICGPLVRMISKWILEGGISDMHREFFVKSIKDVGVDRLWHDKFRLRLPMLPKFVPMDMANKIFMTGKSINFLREICEEQGMMKERDELMKVMESSASQIFSYTPDTSWHAAVETCYQQTSKHVLDIMVGPHKLLDHLHGMRRYLLLGQGDFISILIENMKNELERPALDIYANDLTSMLDSALRCTNAQYDDPDILNHLDVIVQRPFNGDIGWNIISLQYIVHGPLAAMLESTMPTYKVLFKPLWRMKHMEFVLSMKIWKEQMGNAKALRTMKSEIGKASHRLNLFTSEIMHFIHQMQYYVLFEVIECNWVELQKKMQKATTLDEILEAHEKFLQTILVGCFVSNKASVEHSLEVVYENIIELEKWQSSFYKDCFKELNARKELSKIVEKSEKKGVYGLTNKMILQRDQEAKIFAEKMDIACRGLEVIATDYEKAVSTFLMSLNSSDDPNLQLFGTRLDFNEYYKKRDTNLSKPLTFEHMRMSNVFAVNSRFVICTPSTQE”, the protein production result is given as “failed”.

As to “MSQEQRMQKTFEVENHLGYRILRWVLLVALLSGILMSAVQVVLDAKRVSAELERDAAQTLAMVEDSATQAVFSIDDTLAQQVVDGLFALEPIHMAKITHPDGDELGDRLRPLQDSPFRPLTDPIFGQVREYRESLTRGSNPDLVYGYLEVHYDTAPYARTWLGRALVTFASGIALALILGIVLFVVFHLLLTRPLLRIVQSVKKVDPAHPDDRLVSIPEGHRADELGLWVNATNNLLVAIGDTQKKHREAEDRVTRLARYDTLTGLPSRDAFMEDLQGAIERAQEGHSSIALMVCGIDDFKSVNEQCGFRTGDTILQTVASRLTANLSSDRFNVARLGSDQFVIVEKHLRDGFQAAETAEKVLATIGSPINSGNHRISMTATLGISLFPSDADQADRLLQSAEQTMALAKQTGHNHFQFYVASIDKEIRERKQMEKDLAQALANHEFHLVYQPQINLETRRVIGAEALLRWEHPEHGMIPPDLFIPVAEANGSIVEIGQWVLDQACWQAARWASEGTHLRIAVNLSAVQLRQESIVDDILNTLKRHNIPAGRLELEVTETSFMTNLTDAVAKLHRLHRAGISIAVDDFGTGYSSLTYLKQMPVQHLKIDKQFIRDLLINEEDTRIANTIIDLGKSLNLTVVAEGVETAEQEYYLSQRGCALAQGYFFSKPLLPRDFANFVQTFHARIVENNA”, the protein production entry was “failed”. As to “MSQFAINIMFVGGSFLLYIAIAVWAKAGSTSDFYVAGGGVHPITNGAAIGADWMSAASFISMAGLIAAGGYANSTFLMGWTGGYVLLAMLLAPYLRKFGKFTVPEFIGDRYYSANARLVAVICLIVASVTYVIGQMAGAGVAFSRFLEVDATTGLIIAAVVVFVYAVLGGMKGITYTQVAQYCVLIVAYTIPAVFISIQLTGNPIPGLGMFSTHTDSGLPLLEKLNQVITDLGFNEYTADVDNKLNMVLFTLSLMIGTAGLPHVIIRFFTVPKVADARWSGGWALVFIALLYLTAPAVASMARLNLMTTIYPDGTQAAPIEYDERPNWVKEWEVTGLIQFTDKNEDGRIQLYNDVPAFEAEAQARGWNGNELVVNRDILVLANPEIANLPGWVIGLIAAGGLAAALSTAAGLLLAISSAVSHDLIKGRFNPSISDKGELMAARISMAVAIVVATYLGANPPGFAAQVVALAFGIAAASLFPALMMGIFSKRVNNVGATLGMLSGLLFTLIYIFVYKGWLFIPGTNNLPDTPENWVLGISPLSIGAVGALVNFAVAFAVSKATAEPPVEIQELVESVRYPRGAGTAQDH”, the protein production entry is reported as “failed”. On to “MSQHLFTAFILTALAGLSTGIGSLIAFVTKHTNKTFLSVSLGFSAGVMIYVSMIEIFPTAQTILTKAMDKKSGSWLTVLAFFGGILLIAIIDKLIPSEENPHEIKTIEEEDQKPTKLMRMGLMTAIAIGIHNFPEGLATFISGLQDASIAIPIVIAIAIHNIPEGIAVSVPIYQATGSKKKAFTYSFLSGLAEPLGAIIGWFLLMPIMNNIVYGAIFSAVAGIMVFISLDELLPAAEEYGKHHLAIYGVISGMLIMAVSLLLFI”, for which the protein production entry was “failed”.

The values are drawn from a protein production outcome set (Wang et al. 2014).
